Values of other authors as cited in paper PMC10419064.

Biological target: Cardiac troponin I switch peptide (Homo sapiens) (UniProt P19429)

For “Cardiac troponin C regulatory N-domain (from UniProt P63316)”, the Kd is given as less than 50 µM.
